Laboratory results as given in article PMC11975207, “One‐Pot Hetero‐Di‐C‐Glycosylation of the Natural Polyphenol Phloretin by a Single C‐Glycosyltransferase With Broad Sugar Substrate Specificity” (Biotechnology and Bioengineering, 2025).

How the values were obtained:
Assay in all cases: HPLC of UDP release, initial rates, Michaelis-Menten fit
Type in all cases: biochemical, Citrus japonica
Settings in all cases: 1.0 mM phloretin as acceptor, pH 8.0, 30 °C, donor 20-800 µM
[1] = substrate: O=c1ccn([C@@H]2O[C@H](CO[P@@](=O)(O)O[P@@](=O)(O)O[C@H]3O[C@H](CO)[C@@H](O)[C@H](O)[C@H]3O)[C@@H](O)[C@H]2O)c(=O)[nH]1
[2] = substrate: O=c1ccn([C@@H]2O[C@H](COP(=O)(O)OP(=O)(O)O[C@H]3O[C@H](CO)[C@H](O)[C@H](O)[C@H]3O)[C@@H](O)[C@H]2O)c(=O)[nH]1
[3] = substrate: O=c1ccn([C@@H]2O[C@H](COP(=O)(O)OP(=O)(O)O[C@H]3OC[C@@H](O)[C@H](O)[C@H]3O)[C@@H](O)[C@H]2O)c(=O)[nH]1

B1: FcCGT (Citrus japonica) (protein)
chain: MSDSGGFDSHPHVALIPSAGMGHLTPFLRLAASLVQHHCRVTLITTYPTVSLAETQHVSHFLSAYPQVTEKRFHLLPFDPNSANATDPFFLRWEAIRRSAHLLAPLLSPPLSALITDVTLISAVLPVTINLHLPNYVLFTASARMFSLTASFPAIVASKSTSSGSVEFDDDFIEIPGLPPIPLSSVPPAVMDSKSLFATSFLENGNSFVKSNGVLINSFDALEADTLVALNGRRVVAGLPPVYAVGPLLPCEFEKRDDPSTSLILKWLDDQPEGSVVYVSFGSRLALSMEQTKELGNGLLSSGCRFLWVVKGKTVDKEDEESLKNVLGHELMEKIKDQGLVVKNWVDQDKVLSHRAVGGFVSHGGWNSLVEAARHGVPVLVWPQFGDQKINAEAVESAGLGMWVRSWGWGTELRAKGDEIGLKIKDLMANDFLREQAKRIEEEARKAIGVGGSSERTFKELIDKWKCNNNTH
notes: recombinant purified; polypeptide Mr 53600; construct details in supplement and Li et al. 2023
Q: How did the Km [1] turn out when B1 was run?
A: 55 ± 2.4 µM

Q: And the kcat [1]?
A: 139 ± 2.5 min–1

Q: And the Km [2]?
A: 432 ± 26 µM

Q: And the kcat [2]?
A: 0.28 ± 0.01 min–1

Q: And the Km [3]?
A: 122 ± 11 µM

Q: What about the kcat [3] of the same protein?
A: 15 ± 0.8 min–1
